Data reported in US20140037648A1.

Columns and labels:
[1] = target: stabilized form of the full-length pre-fusion RSV F protein (RSV); test: surface plasmon resonance
[2] = target: F protein of RSV 9736/2009 (B, Pavia IT, 2009; B/9736/09) (RSV (9736/2009)); test: cell-based or functional assay
[3] = target: F protein of RSV Randall (A, Chicago US, 1958; A/Randall/58) (RSV (strain Randall)); test: cell-based or functional assay
[4] = target: F protein of RSV 9727/2009 (B, Pavia IT, 2009; B/9727/09) (RSV (9727/2009)); test: cell-based or functional assay
[5] = target: F protein of RSV A/9846/09 (RSV (A/9846/09)); test: cell-based or functional assay
[6] = target: F protein of MPV I-PV-03/01-6621 (A1, Pavia IT, 2001; A1/6621/01) (MPV (I-PV-03/01-6621)); test: cell-based or functional assay
[7] = target: F protein of RSV 9847/2009 (B, Pavia IT, 2009; B/9847/09) (RSV (9847/2009)); test: cell-based or functional assay
[8] = target: F protein of RSV A/9835/09 (RSV (A/9835/09)); test: cell-based or functional assay

Substance: Palivizumab (antibody)
- Kd [1]: 2 nM
- Neutralization IC50 [2]: 0.092 µg/mL
- Neutralization IC50 [3]: 0.44 µg/mL
- Neutralization IC50 [4]: 0.275 µg/mL
- Neutralization IC50 [5]: 0.283 µg/mL
- IC50 (ng/ml), microneutralization [6]: > 20000 ng/mL
- Neutralization IC50 [7]: 0.209 µg/mL
- Neutralization IC50 [8]: 0.284 µg/mL
